Drawing on US20190194280A1, this text covers IC50-based peak height and % inhibition for nine molecules.

To fix the notation:
B1: Aβ-5-5 or APP 770 (S667-R676) (peptide)
peptide: SEVKMDAEFR
B2: Aβ-8-2 or APP 770 (E664-A673) (peptide)
peptide: EEISEVKMDA
B3: Aβ5-14 or APP 770 (R676-H685) (peptide)
peptide: RHDSGYEVHH
B4: Aβ-4-6 or APP 770 (E668-H677) (peptide)
peptide: EVKMDAEFRH
B5: Aβ-7-3 or APP 770 (E665-E674) (peptide)
peptide: EISEVKMDAE
B6: Aβ-3-7 or APP 770 (V669-D678) (peptide)
peptide: VKMDAEFRHD
B7: Aβ-9-1 or APP 770 (T663-D672) (peptide)
peptide: TEEISEVKMD
B8: Aβ-6-4 or APP 770 (I666-F675) (peptide)
peptide: ISEVKMDAEF
B9: Aβ17-42 (Aβ or APP 770 (L688-A713)) (peptide)
peptide: LVFFAEDVGSNKGAIIGLMVGGVVIA

The first assay deals with Serum samples collected at week 16 from patients immunized with UBI AD vaccine (UB-311). Description: comp. ELISA, serum P205. (In an ELISA, binding on a coated surface is turned into a signal by an enzyme label.)
B1 registered an IC50-based peak height of 0.
The molecule B2 gave an IC50-based peak height of 0.
Same read-out and setting: the figure for B3 is 0; for B4 it is 0.
In the case of B5, the IC50-based peak height is 0.
On the same count and under the same terms, the figure for B6 is 0.
The same measure, in the same setting: then B7, with 0.
As to B8, the IC50-based peak height amounted to 0.

The next assay shares this target. Description: comp. ELISA, serum P203.
For B1, the IC50-based peak height was 0.
On the same count and under the same terms, then B2, with 0.
On the same count and under the same terms, then B3, with 0; and B4, with 0.
In turn, B5 displayed an IC50-based peak height of 0.
B6: the IC50-based peak height came to 0.
B7 displayed an IC50-based peak height of 0.
Same read-out and setting: the figure for B8 is 0.

A further assay has the same target. Description: comp. ELISA, serum P204.
For the molecule B1, the IC50-based peak height was found to be 0.
The same measure, in the same setting: the figure for B2 is 0; for B3 it is 0; for B4 it is 0.
Still for that read-out and setting: then B5, with 0; and B6, with 1.
Still for that read-out and setting: the figure for B7 is 0; for B8 it is 0.

The next assay shares this target. Kind of assay: comp. ELISA, serum P107.
B1 had an IC50-based peak height of 0.
The same measure, in the same setting: the figure for B2 is 0; for B3 it is 0; for B4 it is 0.
Same read-out and setting: the figure for B5 is 0; for B6 it is 0; for B7 it is 0.
On the same count and under the same terms, then B8, with 0.

For a further assay the target is unchanged. Kind of assay: comp. ELISA, serum P102.
B1 had an IC50-based peak height of 0.
Same read-out and setting: the figure for B2 is 0.
Still for that read-out and setting: the figure for B3 is 0; for B4 it is 0; for B5 it is 0.
Still for that read-out and setting: then B6, with 0.
The molecule B7 displayed an IC50-based peak height of 0.
Take B8: the IC50-based peak height was found to be 0.

For another assay the target is unchanged. Kind of assay: comp. ELISA, serum P101.
Consider B1, for which the IC50-based peak height is 10.
The same measure, in the same setting: the figure for B2 is 0.
On to B3, for which the IC50-based peak height stood at 0.
Still for that read-out and setting: then B4, with 1; and B5, with 0.
Still for that read-out and setting: then B6, with 31.
Same read-out and setting: then B7, with 0; and B8, with 0.

For the next assay the target is unchanged. Kind of assay: comp. ELISA, serum P208.
Regarding B1, the IC50-based peak height is 0.
Molecule B2 yielded an IC50-based peak height of 0.
The same measure, in the same setting: then B3, with 0.
The molecule B4 came in with an IC50-based peak height of 0.
Still for that read-out and setting: then B5, with 0.
Still for that read-out and setting: the figure for B6 is 0; for B7 it is 0.
Take B8: the IC50-based peak height was found to be 0.

The target is the same in the next assay. Kind of assay: comp. ELISA, serum P109.
B1 gave an IC50-based peak height of 0.
Same read-out and setting: then B2, with 0; and B3, with 0.
Same read-out and setting: then B4, with 0; and B5, with 0.
The molecule B6 came in with an IC50-based peak height of 0.
B7 returned an IC50-based peak height of 0.
Same read-out and setting: then B8, with 0.

For another assay the target is unchanged. Kind of assay: comp. ELISA, serum P201.
As for B1, the IC50-based peak height was 0.
For the molecule B2, the IC50-based peak height stood at 0.
Still for that read-out and setting: the figure for B3 is 0; for B4 it is 58; for B5 it is 0.
Take B6: the IC50-based peak height was 0.
On the same count and under the same terms, then B7, with 0.
Still for that read-out and setting: the figure for B8 is 0.

The target is the same in the next assay. Description: comp. ELISA, serum P210.
Molecule B1 came in with an IC50-based peak height of 0.
On the same count and under the same terms, the figure for B2 is 0; for B3 it is 0; for B4 it is 0.
Same read-out and setting: the figure for B5 is 0; for B6 it is 13.
Still for that read-out and setting: then B7, with 0.
On to B8, for which the IC50-based peak height came out at 0.

The next assay has the same target. Kind of assay: comp. ELISA, serum P105.
Consider B1, for which the IC50-based peak height came to 0.
B2 gave an IC50-based peak height of 0.
B3 came in with an IC50-based peak height of 0.
On the same count and under the same terms, then B4, with 0.
Molecule B5 showed an IC50-based peak height of 0.
On the same count and under the same terms, then B6, with 0.
Turning to B7, the IC50-based peak height is 0.
Still for that read-out and setting: the figure for B8 is 0.

Another assay has the same target. Description: comp. ELISA, serum P202.
Regarding B1, the IC50-based peak height was determined as 0.
Same read-out and setting: the figure for B2 is 0; for B3 it is 0; for B4 it is 0.
Same read-out and setting: then B5, with 0.
Molecule B6 gave an IC50-based peak height of 0.
Still for that read-out and setting: then B7, with 0; and B8, with 0.

Another assay shares this target. Kind of assay: comp. ELISA, serum P209.
B1 registered an IC50-based peak height of 0.
Still for that read-out and setting: then B2, with 0.
On the same count and under the same terms, the figure for B3 is 0.
Same read-out and setting: then B4, with 0.
Turning to B5, the IC50-based peak height came to 0.
Same read-out and setting: the figure for B6 is 0; for B7 it is 0; for B8 it is 0.

For another assay the target is unchanged. Kind of assay: comp. ELISA, serum P103.
B1: the IC50-based peak height was 0.
The same measure, in the same setting: the figure for B2 is 0; for B3 it is 0.
Still for that read-out and setting: then B4, with 0; and B5, with 0; and B6, with 0.
Still for that read-out and setting: the figure for B7 is 0; for B8 it is 0.

The next assay has the same target. Description: comp. ELISA, serum P207.
Take B1: the IC50-based peak height came to 0.
The same measure, in the same setting: the figure for B2 is 0; for B3 it is 0.
Still for that read-out and setting: then B4, with 1; and B5, with 0; and B6, with 0.
Still for that read-out and setting: the figure for B7 is 0; for B8 it is 0.

The next assay has the same target. Description: comp. ELISA, serum P108.
The molecule B1 came in with an IC50-based peak height of 0.
In the case of B2, the IC50-based peak height was determined as 0.
Still for that read-out and setting: then B3, with 0; and B4, with 0.
Same read-out and setting: the figure for B5 is 0; for B6 it is 0; for B7 it is 0.
The same measure, in the same setting: then B8, with 0.

The target is the same in the next assay. Kind of assay: comp. ELISA, serum P106.
As for B1, the IC50-based peak height turned out to be 0.
On the same count and under the same terms, then B2, with 0.
The same measure, in the same setting: the figure for B3 is 0; for B4 it is 0; for B5 it is 0.
Same read-out and setting: then B6, with 0.
B7 displayed an IC50-based peak height of 0.
B8 came in with an IC50-based peak height of 0.

For a further assay the target is unchanged. Description: comp. ELISA, serum P104.
The molecule B1 returned an IC50-based peak height of 0.
On the same count and under the same terms, the figure for B2 is 0.
The same measure, in the same setting: then B3, with 0.
Still for that read-out and setting: the figure for B4 is 0; for B5 it is 0; for B6 it is 0.
As for B7, the IC50-based peak height turned out to be 0.
In turn, B8 gave an IC50-based peak height of 0.

The target is the same in the next assay. Kind of assay: comp. ELISA, serum P206.
As to B1, the IC50-based peak height was 0.
The same measure, in the same setting: then B2, with 0; and B3, with 0; and B4, with 0.
Still for that read-out and setting: the figure for B5 is 0; for B6 it is 0; for B7 it is 0.
In turn, B8 gave an IC50-based peak height of 0.

In another assay the target is Immune sera of baboons immunized with UBI AD vaccine. Description: competitive inhibition ELISA.
Usually % inhibition stands for the percentage by which the read-out fell short of the control. High values mean strong suppression, low ones little suppression. Take B9: the % inhibition at 0 µg/mL came out at 0%, the % inhibition at 0.25 µg/mL was 5%, the % inhibition at 0.5 µg/mL is 9% and the % inhibition at 1 µg/mL was found to be 10%. The same molecule came in with a % inhibition at 2 µg/mL of 5%, a % inhibition at 8 µg/mL of 0% and a % inhibition at 32 µg/mL of 7%.
